Amyloid nucleation score data for 141 substances are collected here from the supplement of paper PMC12042874.

± gives the uncertainty stated by the source.

The nature of the data set: amyloid nucleation score (Sup35N fusion, yeast selection) (log enrichment); library NNK2; higher = more nucleation; inactive = no reads after selection. In a few lines: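 On medium lacking adenine and uracil, psi-negative yeast expressing peptides of 20 random codons fused to Sup35N were grown 7 days at 30°C after a 24-hour induction with 100 μM copper sulfate. Illumina sequencing of input and output plasmid inserts gave the reads, and sequences under 100 input reads were excluded. The nucleation score is the DiMSum log enrichment of output over input reads, centred on the mode score of non-aggregating sequences.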
As for HDYYMSVSLMGWY, the amyloid nucleation score is -1.02 ± 0.34.
For DCNVWSSSERKVLSRGTSDF the value was -0.193 ± 0.31; for RPWLVY, 0.026 ± 1.1.
On to VLLEIY, for which the amyloid nucleation score was -0.384 ± 0.65.
For KSRVVMRTHAHSALWKWPGR the value was 1.64 ± 0.28; for TTALGRFMFDLCNDDWYSLV, “inactive”; for LMGLQMSLPWSNEIVRVIPD, -0.663 ± 0.49.
LARYFAKKLYNFYFLAFTGW came in with an amyloid nucleation score of 1.14 ± 0.29.
For ATQRHVSTGKSGSN the value was 0.606 ± 0.8; for NWIPSI, -0.817 ± 0.41; for VRYDCYMPDMCFSRDHCWFE, 0.079 ± 0.55.
For INSITKSVGGQRGARRY the value was 2.25 ± 0.21; for YVMNQPDKVWSHIESGNKRH, -1.34 ± 0.62; for FYMTYWISPMVIQWVFTDYA, 5.571 ± 0.034.
For TYVDTVFSGSGCYLLYKGWI the value was 0.851 ± 0.57; for PQTLCINISFDYRYMNQVLD, 7.449 ± 0.074; for SAYVVLIEFVLNKVVGTLLR, -0.634 ± 0.63.
For the substance EILLR, the amyloid nucleation score was 0.269 ± 0.8.
For VEFLPCLSIYSACFSLDGST the value was -1.37 ± 0.44; for GNPTESG, 0.148 ± 0.29.
For YVFYLVR the value was 1.03 ± 0.24; for YHLKYRGSMGVPCLNTFVWN, 5.15 ± 0.055.
With CFKDYQIGSCKQSL the figure was -0.499 ± 0.76.
Consider RVGACRMVRHYVGTWVQQLL, for which the amyloid nucleation score was determined as 0.246 ± 1.1.
With WLLFMS the figure was -0.353 ± 0.54.
With TRGNM the figure was 0.63 ± 0.39.
For ITGTFF the value was 1.99 ± 0.084; for WFCVVVMFGRRVDNLDKLVF, -1.33 ± 0.54; for NYKRFCSCMLDH, -0.665 ± 0.63.
On to WVVNRTQGYGRLSSGDEEVP, for which the amyloid nucleation score was 1.35 ± 0.37.
As to YFPVIRRDAAFYPFSAPYFN, the amyloid nucleation score is -2.05 ± 0.77.
PATDPWCS gave an amyloid nucleation score of -0.14 ± 0.25.
With IHKETGLEIVARRKVHFDGG the figure was 0.524 ± 0.26; with KSAQEF, 0.839 ± 0.43; with RTSRVKVR, 4.13 ± 0.074.
With NSYTFLNT the entry was “inactive”; with NVLSWKHMRAKGVNWFGGWV, -0.066 ± 0.27; with YWFPEASMFLIPL, -1.49 ± 1.1.
In the case of MGPDMYVCKVWLGAVAYEMG, the amyloid nucleation score was 1.95 ± 0.4.
For FYASLHNSFFSVLWTDMTFS the value was -0.487 ± 1.1; for FSRWVVVLVVQLWSLALRSN, 0.369 ± 0.65; for INMGMYDSNVCDA, -0.034 ± 0.65.
With SLCLRRCMKNKSKQMTMVWR the figure was -0.247 ± 0.53; with MVYELRRFRCLFITVSGVDS, “inactive”.
For ANAAV the value was 1.12 ± 0.61.
Turning to CTSASGTSPGWNKRGRNWGD, the amyloid nucleation score amounted to 5.52 ± 0.095.
On to KTNVMERCHFQRILCFGMW, for which the amyloid nucleation score entry was “inactive”.
For the substance LRKNSLTCSSKKPEKAVTFC, the amyloid nucleation score is -1.42 ± 1.
Take DNRNCPAHWWASFTMKPGSE: the amyloid nucleation score was 0.14 ± 0.49.
With QWRFGRG the figure was 1.16 ± 0.26; with LYISQSCGRHD, -0.554 ± 0.22; with LSLFVQMMSVGTILLYRMTL, 0.715 ± 0.34.
On to IGTMVEREKL, for which the amyloid nucleation score stood at 0.299 ± 0.39.
In turn, IFPVLPGTLYRCTMMC had an amyloid nucleation score of -0.612 ± 0.32.
ALECHIRLKWRVSVGPGVLV came in with an amyloid nucleation score of 1.17 ± 0.28.
For RSGVL the value was 4.24 ± 0.066; for MMGRTTWMDIKIYWENQCAE, -0.176 ± 1.1; for CVVRSSAKRFDCRKFGRASN, 0.599 ± 0.8.
DTFPKHSQHAVVKRPQIYID: the amyloid nucleation score is -1.04 ± 1.1.
With SGSMKCPSYRYYCPQNIFCT the figure was 6.43 ± 0.08; with PTAVNSTMYSMYRTGNL, -0.294 ± 0.34; with FVLRIDNC, 0.735 ± 0.39.
For VWKNPYIGVHLLHDLKS the value was -0.391 ± 0.21.
For the substance FGMTRRETWNLSGCESITCT, the amyloid nucleation score is 0.593 ± 0.45.
GSSVEMQLCELTSGGFDLSL displayed an amyloid nucleation score of 0.228 ± 0.32.
Take EGSNNVVVRDSAVYQVSGEM: the amyloid nucleation score was -0.375 ± 1.1.
For FYLYNFMCEVLYMESRRVMS the value was “inactive”; for VAFFWIKFH, -0.807 ± 1.
Regarding FHMVIGWYICLICNGFYTFF, the amyloid nucleation score result was “inactive”.
With MFGNTGLTSYYALTGTRWLY the figure was -0.487 ± 0.79; with ANSMLVF, -0.573 ± 0.4; with RILFNRS, 0.107 ± 0.4.
For NLVFKPFCEPSVVSV the value was 0.099 ± 0.62; for GFVMSYGRGLLS, 0.29 ± 0.42; for CLWSSNSSSIWDIGRYFRR, -1.21 ± 0.31.
On to DYFSNLIVDLTFLSGSFVFV, for which the amyloid nucleation score was -0.578 ± 1.1.
For YSGKNIAGLNFSIRCCSSIE the value was 8.793 ± 0.036; for ISCHLFLLALYGWNKCVCSV, 0.114 ± 0.62; for LFCTFKLRAMTFTSNKSRVV, 1.04 ± 0.43.
For CAFRASFLLT the value was 0.04 ± 0.34; for HSDMFRKIQVLILSVERQNE, “inactive”.
With FYCVNV the figure was -0.383 ± 0.64; with GMCLTGSTSVRTNNSPHVSR, 0.803 ± 0.32.
Consider ARSDLNMRTFFVWASLFVLS, for which the amyloid nucleation score stood at 4.43 ± 0.056.
In the case of DVCGD, the amyloid nucleation score is -0.566 ± 0.48.
For NELLNTWRLLSCPWRIWSLR, the amyloid nucleation score was found to be 0.67 ± 0.26.
Turning to NSGHYFKDKSWCQMRS, the amyloid nucleation score was determined as 0.615 ± 0.66.
Substance YPEPKQWVSVSALHLVRGLR displayed an amyloid nucleation score of 0.995 ± 0.2.
With SCRLLDSFDPMSRGKSSQRR the figure was -0.003 ± 1.1; with DVLWTLQLLFDPVGLCLAMK, 0.391 ± 0.41.
For NLFFVGPCELSRWLGFSNLQ, the amyloid nucleation score came out at 5.874 ± 0.032.
LCEEICLDFFMVRMFKHASY came in with an amyloid nucleation score of 1.63 ± 0.11.
For CRVALSVVYHTINEKQWYRV the value was -0.988 ± 0.28; for LLYQKKDEWLGASYSLQKLS, -0.686 ± 0.37; for FSLCDILVLVNTNAGWAAFD, -0.352 ± 1.
As to ICRNGLSL, the amyloid nucleation score worked out at 0.098 ± 0.26.
With TFRAMAFVIFAGWLIRYDRR the entry was “inactive”; with ENDMLTYYSLLFYWIKIVSY, “inactive”; with NLNSFMVADYLYGDQVQKVF, 0.138 ± 0.8.
With SRAGECSSWGHIYGLCVDLR the figure was -0.897 ± 0.55.
With MYLTCFWVGQDGKGRKDGGV the figure was 5.62 ± 0.078; with YMSLNKTAVTCVCHM, -0.425 ± 0.5; with LGVFWIDWPLLLGFRSRTGV, -0.393 ± 1.1.
The substance TLCRAGLNGPWLNVLRFVPR yielded an amyloid nucleation score of 0.615 ± 0.36.
For LFLSLTTQNWFNYNLPI the value was 7.32 ± 0.026; for PSDSLVYVYDL, -0.41 ± 0.38; for YRFRVLCQVCNHGLRYKFFT, 0.372 ± 0.37.
For the substance QRVSRYNLLRARPGKIAEHF, the amyloid nucleation score entry is “inactive”.
In turn, SSCLIG had an amyloid nucleation score of 0.28 ± 0.43.
With IWSRLVVLRGRAGSDSSKNS the figure was -0.044 ± 0.5; with YLIRVHICGCKYVERLFHSV, “inactive”.
The substance VRLGRWLFTFSANTDTLANM returned an amyloid nucleation score of -0.729 ± 1.1.
For SFFNRESGIWWRGSSWFVLV the value was -0.711 ± 0.48; for YYEVCPI, -0.076 ± 0.44.
With VVRGIRVTR the figure was 0.116 ± 0.28; with VTFLGDIRYFRCWCL, 9.561 ± 0.077.
With NIFYRLNGFFQCPRSGLKGC the entry was “inactive”.
FLFNVSGLYIGWSLVPTNLD: the amyloid nucleation score was -0.33 ± 0.76.
SLLYQQDGCNLVVFYQFLV: the amyloid nucleation score stood at 2.52 ± 0.13.
With GLSAKNH the figure was 0.279 ± 0.39; with VGLWLTRVPPFVYGYRGSVS, 0.165 ± 1.
For PNIIGKLGNLNSLVLC the value was 0.382 ± 0.8; for ARDRNSFGLDCAVFMSYFTT, 3.34 ± 0.11.
For VKFAGWTCSL the value was -0.314 ± 0.62.
Turning to HGSQRFDFWGGYRYW, the amyloid nucleation score was found to be 0.83 ± 0.13.
Turning to RTIYFFLSWHFGSFIKFLKL, the amyloid nucleation score result was “inactive”.
With MSPLH the figure was -0.181 ± 0.39.
LGICPFNGSLRS gave an amyloid nucleation score of -1.65 ± 1.1.
In the case of KSYMARMWYMVRLMLTCLDY, the amyloid nucleation score stood at 0.741 ± 0.47.
Substance NSNFCCVGLCTNFAWFVCLM registered an amyloid nucleation score of 8.44 ± 0.064.
As to NISDFVKLVSYWVSVRCDLR, the amyloid nucleation score was -0.305 ± 1.1.
For CSIVVNQARCDGSCNYRKVM the value was 9.731 ± 0.055; for EKIFPLMGVKN, “inactive”; for RSFSSPRIILYVKLLVSLYG, -0.783 ± 0.25.
On to SFFVRKLIGNSYHN, for which the amyloid nucleation score came to 1.89 ± 0.17.
In turn, DGKFRRVTLRGPLA registered an amyloid nucleation score of 0.554 ± 0.56.
On to HLWGTKFMAFVARFV, for which the amyloid nucleation score is -0.12 ± 0.79.
With NVMSDYTFANTSITSCCY, the amyloid nucleation score was -1.26 ± 0.64.
With KLHRSESVHVICTVCS the figure was 1.17 ± 0.3; with MNLAVGWSHSPDQDLYYPML, -0.339 ± 0.56.
For HSFPRCNSVHWPDDIGGCDG the value was 4.58 ± 0.047.
